Test results from PMC10288592.

Target: PYCO1(452 to 592) (Phaeodactylum tricornutum)
Assay: cryo-EM structure; single particle cryo-EM of the Rubisco–PYCO1(452 to 592) complex

- stoichiometry N: 4
Substance: PYCO1(452 to 592) (domain or fragment)
